T1: B7H3 (human, UniProt Q5ZPR3 29-466, limits assumed)
T1 construct: Tumor associated antigen; also called huB7H3
T1 sequence (looked up): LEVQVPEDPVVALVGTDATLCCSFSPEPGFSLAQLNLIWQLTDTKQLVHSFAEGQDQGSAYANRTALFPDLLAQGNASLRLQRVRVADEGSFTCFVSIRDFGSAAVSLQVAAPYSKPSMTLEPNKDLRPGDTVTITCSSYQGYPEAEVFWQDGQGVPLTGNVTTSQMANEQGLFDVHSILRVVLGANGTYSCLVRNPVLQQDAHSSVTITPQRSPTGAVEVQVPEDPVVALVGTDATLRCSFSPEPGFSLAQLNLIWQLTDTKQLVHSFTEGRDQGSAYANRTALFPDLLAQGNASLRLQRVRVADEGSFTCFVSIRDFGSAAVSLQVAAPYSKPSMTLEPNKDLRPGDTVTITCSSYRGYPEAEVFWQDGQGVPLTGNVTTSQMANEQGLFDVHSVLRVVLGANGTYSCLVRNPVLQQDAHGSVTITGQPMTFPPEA

B1: Ly1965 (bispecific antibody)
chain 1: QVQLVQSGAEVKKPGASVKVSCKASGYTFTSYVMHWVRQKPGQGLEWIGYINPYNEGTESTDKFKGRATMTSDKSTSTVYMELSSLRSEDTAVYYCASIYYGYEGTYFGVWGQGTLVTVSSASTKGPSVFPLAPSSKSTSGGTAALGCLVKDYFPEPVTVSWNSGALTSGVHTFPAVLQSSGLYSLSSVVTVPSSSLGTQTYICNVNHKPSNTKVDKKVEPKSCGGGGSGGGGSGGGGSGGGGSEVQLVESGGGLVQPGGSLRLSCAASGFTFSTYAMNWVRQAPGKGLEWVGRIRSKYNNYATYYADSVKGRFTISRDDSKNSLYLQMNSLKTEDTAVYYCVRHGNFGNSYVSWFAYWGQGTLVTVSSGGGGSDKTHTCPPCPAPEAAGPSVFLFPPKPKDTLMISRTPEVTCVVVDVSHEDPEVKFNWYVDGVEVHNAKTKPREEQYNSTYRVVSVLTVLHQDWLNGKEYKCKVSNKALPAPIEKTISKAKGQPREPQVYTLPPSREEMTKNQVSLWCLVKGFYPSDIAVEWESNGQPENNYKTTPPVLDSDGSFFLYSKLTVDKSRWQQGNVFSCSVMHEALHNHYTQKSLSLSPG
chain 2: QVQLVQSGAEVKKPGASVKVSCKASGYTFTSYVMHWVRQKPGQGLEWIGYINPYNEGTESTDKFKGRATMTSDKSTSTVYMELSSLRSEDTAVYYCASIYYGYEGTYFGVWGQGTLVTVSSASTKGPSVFPLAPSSKSTSGGTAALGCLVKDYFPEPVTVSWNSGALTSGVHTFPAVLQSSGLYSLSSVVTVPSSSLGTQTYICNVNHKPSNTKVDKKVEPKSCGGGGSGGGGSGGGGSGGGGSQAVVTQEPSLTVSPGGTVTLTCRSSTGAVTTSNYANWVQQKPGQAPRGLIGGTNKRAPWTPARFSGSLLGGKAALTITGAQAEDEADYYCALWYSNLWVFGGGTKLTVLGGGGSDKTHTCPPCPAPEAAGPSVFLFPPKPKDTLMISRTPEVTCVVVDVSHEDPEVKFNWYVDGVEVHNAKTKPREEQYNSTYRVVSVLTVLHQDWLNGKEYKCKVSNKALPAPIEKTISKAKGQPREPQVYTLPPSREEMTKNQVSLSCAVKGFYPSDIAVEWESNGQPENNYKTTPPVLDSDGSFFLVSKLTVDKSRWQQGNVFSCSVMHEALHNRFTQKSLSLSPG
light: EIVLTQSPATLSLSPGERATLSCRASSSVSYMHWYQQKPGQAPRPWIYATSNLASGIPARFSGSRSGTDYTLTISSLEPEDFAVYYCQQWSSNTLTFGGGTKVEIKRTVAAPSVFIFPPSDEQLKSGTASVVCLLNNFYPREAKVQWKVDNALQSGNSQESVTEQDSKDSTYSLSSTLTLSKADYEKHKVYACEVTHQGLSSPVTKSFNRGEC
notes: B7H3/CD3: two B7H3 Fabs, central CD3 Fv
B2: Ly2424 (bispecific antibody, human IgG1, kappa)
chain 1: not shown
chain 2: QVQLVQSGAEVKKPGASVKVSCKASGYTFTSYVMHWVRQKPGQGLEWIGYINPYNEGTESTDKFKGRATMTSDKSTSTVYMELSSLRSEDTAVYYCASIYYGYEGTYFGVWGQGTLVTVSSASTKGPSVFPLAPSSKSTSGGTAALGCLVKDYFPEPVTVSWNSGALTSGVHTFPAVLQSSGLYSLSSVVTVPSSSLGTQTYICNVNHKPSNTKVDKKVEPKSCDKTHTCPPCPAPEAAGPSVFLFPPKPKDTLMISRTPEVTCVVVDVSHEDPEVKFNWYVDGVEVHNAKTKPREEQYNSTYRVVSVLTVLHQDWLNGKEYKCKVSNKALPAPIEKTISKAKGQPREPQVYTLPPSREEMTKNQVSLSCAVKGFYPSDIAVEWESNGQPENNYKTTPPVLDSDGSFFLVSKLTVDKSRWQQGNVFSCSVMHEALHNRFTQKSLSLSPGGGGGSGGGGSGGGGSGGGGSDIQMTQSPSSVSASVGDRVTITCRASQGIYSWLAWYQQKPGKAPNLLIYTASTLQSGVPSRFSGSGSGTDFTLTISSLQPEDFATYYCQQANIFPLTFGGGTKVEIK
light: EIVLTQSPATLSLSPGERATLSCRASSSVSYMHWYQQKPGQAPRPWIYATSNLASGIPARFSGSRSGTDYTLTISSLEPEDFAVYYCQQWSSNTLTFGGGTKVEIKRTVAAPSVFIFPPSDEQLKSGTASVVCLLNNFYPREAKVQWKVDNALQSGNSQESVTEQDSKDSTYSLSSTLTLSKADYEKHKVYACEVTHQGLSSPVTKSFNRGEC
notes: B7H3/CD40: two B7H3 Fabs, terminal CD40 Fv (TM383)
B3: Ly2279 (bispecific antibody)
chain 1: not shown
chain 2: QVQLVQSGAEVKKPGASVKVSCKASGYTFTSYVMHWVRQKPGQGLEWIGYINPYNEGTESTDKFKGRATMTSDKSTSTVYMELSSLRSEDTAVYYCASIYYGYEGTYFGVWGQGTLVTVSSASTKGPSVFPLAPSSKSTSGGTAALGCLVKDYFPEPVTVSWNSGALTSGVHTFPAVLQSSGLYSLSSVVTVPSSSLGTQTYICNVNHKPSNTKVDKKVEPKSCGGGGSGGGGSGGGGSGGGGSDIQMTQSPSSVSASVGDRVTITCRASQGIYSWLAWYQQKPGKAPNLLIYTASTLQSGVPSRFSGSGSGTDFTLTISSLQPEDFATYYCQQANIFPLTFGGGTKVEIKGGGGSDKTHTCPPCPAPEAAGPSVFLFPPKPKDTLMISRTPEVTCVVVDVSHEDPEVKFNWYVDGVEVHNAKTKPREEQYNSTYRVVSVLTVLHQDWLNGKEYKCKVSNKALPAPIEKTISKAKGQPREPQVYTLPPSREEMTKNQVSLSCAVKGFYPSDIAVEWESNGQPENNYKTTPPVLDSDGSFFLVSKLTVDKSRWQQGNVFSCSVMHEALHNRFTQKSLSLSPG
light: EIVLTQSPATLSLSPGERATLSCRASSSVSYMHWYQQKPGQAPRPWIYATSNLASGIPARFSGSRSGTDYTLTISSLEPEDFAVYYCQQWSSNTLTFGGGTKVEIKRTVAAPSVFIFPPSDEQLKSGTASVVCLLNNFYPREAKVQWKVDNALQSGNSQESVTEQDSKDSTYSLSSTLTLSKADYEKHKVYACEVTHQGLSSPVTKSFNRGEC
notes: B7H3/CD40: two B7H3 Fabs, central CD40 Fv (TM383)
B4: Ly2428 (bispecific antibody)
chain 1: QVQLVQSGAEVKKPGASVKVSCKASGYTFTSYVMHWVRQKPGQGLEWIGYINPYNEGTESTDKFKGRATMTSDKSTSTVYMELSSLRSEDTAVYYCASIYYGYEGTYFGVWGQGTLVTVSSASTKGPSVFPLAPSSKSTSGGTAALGCLVKDYFPEPVTVSWNSGALTSGVHTFPAVLQSSGLYSLSSVVTVPSSSLGTQTYICNVNHKPSNTKVDKKVEPKSCGGGGSGGGGSGGGGSGGGGSEVQLVESGGGLVQPGGSLRLSCAASGFTFTNYGLHWVRQAPGKGLEWVSSISPSGGVTYYRDSVKGRFTISRDNSKNTLYLQMNSLRAEDTAVYYCAKPFLGWGGANWIAHWGQGTLVTVSSGGGGSDKTHTCPPCPAPEAAGPSVFLFPPKPKDTLMISRTPEVTCVVVDVSHEDPEVKFNWYVDGVEVHNAKTKPREEQYNSTYRVVSVLTVLHQDWLNGKEYKCKVSNKALPAPIEKTISKAKGQPREPQVYTLPPSREEMTKNQVSLWCLVKGFYPSDIAVEWESNGQPENNYKTTPPVLDSDGSFFLYSKLTVDKSRWQQGNVFSCSVMHEALHNHYTQKSLSLSPG
chain 2: QVQLVQSGAEVKKPGASVKVSCKASGYTFTSYVMHWVRQKPGQGLEWIGYINPYNEGTESTDKFKGRATMTSDKSTSTVYMELSSLRSEDTAVYYCASIYYGYEGTYFGVWGQGTLVTVSSASTKGPSVFPLAPSSKSTSGGTAALGCLVKDYFPEPVTVSWNSGALTSGVHTFPAVLQSSGLYSLSSVVTVPSSSLGTQTYICNVNHKPSNTKVDKKVEPKSCGGGGSGGGGSGGGGSGGGGSDIQMTQSPSSLSASVGDRVTITCLASEDISNDLAWYQQKPGKAPKLLIYFVDRLLDGVPSRFSGSGSGTDFTLTISSLQPEDFATYYCQQSYKYPPTFGQGTKLEIKGGGGSDKTHTCPPCPAPEAAGPSVFLFPPKPKDTLMISRTPEVTCVVVDVSHEDPEVKFNWYVDGVEVHNAKTKPREEQYNSTYRVVSVLTVLHQDWLNGKEYKCKVSNKALPAPIEKTISKAKGQPREPQVYTLPPSREEMTKNQVSLSCAVKGFYPSDIAVEWESNGQPENNYKTTPPVLDSDGSFFLVSKLTVDKSRWQQGNVFSCSVMHEALHNRFTQKSLSLSPG
light: EIVLTQSPATLSLSPGERATLSCRASSSVSYMHWYQQKPGQAPRPWIYATSNLASGIPARFSGSRSGTDYTLTISSLEPEDFAVYYCQQWSSNTLTFGGGTKVEIKRTVAAPSVFIFPPSDEQLKSGTASVVCLLNNFYPREAKVQWKVDNALQSGNSQESVTEQDSKDSTYSLSSTLTLSKADYEKHKVYACEVTHQGLSSPVTKSFNRGEC
notes: B7H3/CD40: two B7H3 Fabs, central CD40 Fv (TM559)

What follows are binders tested against T1, B7H3 (assay: FCM or ELISA).

| Binder | binding result |
| --- | --- |
| B1 | binds |
| B2 | binds |
| B3 | binds |
| B4 | binds |

From patent publication US20250388669A1 (published 2025)
